B1: Pistol ribozyme (parent)
chain: GGGUCGUUGUUCCAUAAUCGCGUGGAUAUGGCACGCAAGUUUCUACCGGGCACCGUAAAUGUCCGACUGGAGCCGUUCGGGCGGCUAUAAACAGACCUCAGGCCCGAAGCGUGGCGGCACCUGCCGCCGGUGGUAAAAAAGAUCGGAAGAGCACACGUCU

In this data set the parent is B1. Nature of the data set: aptazyme ON/OFF ratio, guanine; higher = stronger switching; co-transcriptional cleavage with and without guanine.
Take GGGUCGAAUGAUCAUAAUCGCGUGGAUAUGGCACGCAAGUUUCUACCGGGCACCGUAAAUGUCCGACUGGAGCCGUUCGGGCGGCUAUAAACAGACCUCAGGCCCGAAGCGUGGCGGCACCUGCCGCCGGUGGUAAAAAAGAUCGGAAGAGCACACGUCU: the “aptazyme ON/OFF ratio” value amounted to 1.07.
As for GGGUCGCCUGUAAAUAAUCGCGUGGAUAUGGCACGCAAGUUUCUACCGGGCACCGUAAAUGUCCGACUGGAGCCGUUCGGGCGGCUAUAAACAGACCUCAGGCCCGAAGCGUGGCGGCACCUGCCGCCGGUGGUAAAAAAGAUCGGAAGAGCACACGUCU, the “aptazyme ON/OFF ratio” value was determined as 1.06.
Then GGGUCGUCUGCAUAUAAUCGCGUGGAUAUGGCACGCAAGUUUCUACCGGGCACCGUAAAUGUCCGACUGGAGCCGUUCGGGCGGCUAUAAACAGACCUCAGGCCCGAAGCGUGGCGGCACCUGCCGCCGGUGGUAAAAAAGAUCGGAAGAGCACACGUCU, with 1.52; and GGGUCGUUCCCCUAUAAUCGCGUGGAUAUGGCACGCAAGUUUCUACCGGGCACCGUAAAUGUCCGACUGGAGCCGUUCGGGCGGCUAUAAACAGACCUCAGGCCCGAAGCGUGGCGGCACCUGCCGCCGGUGGUAAAAAAGAUCGGAAGAGCACACGUCU, with 1.02.
The result for GGGUCGGUUGGGCAUAAUCGCGUGGAUAUGGCACGCAAGUUUCUACCGGGCACCGUAAAUGUCCGACUGGAGCCGUUCGGGCGGCUAUAAACAGACCUCAGGCCCGAAGCGUGGCGGCACCUGCCGCCGGUGGUAAAAAAGAUCGGAAGAGCACACGUCU reads 1.16; that for GGGUCGAGUGGAAAUAAUCGCGUGGAUAUGGCACGCAAGUUUCUACCGGGCACCGUAAAUGUCCGACUGGAGCCGUUCGGGCGGCUAUAAACAGACCUCAGGCCCGAAGCGUGGCGGCACCUGCCGCCGGUGGUAAAAAAGAUCGGAAGAGCACACGUCU, 1.12; that for GGGUCGCUAUUUUAUAAUCGCGUGGAUAUGGCACGCAAGUUUCUACCGGGCACCGUAAAUGUCCGACUGGAGCCGUUCGGGCGGCUAUAAACAGACCUCAGGCCCGAAGCGUGGCGGCACCUGCCGCCGGUGGUAAAAAAGAUCGGAAGAGCACACGUCU, 1.22.
The result for GGGUCGGCUUGUUAUAAUCGCGUGGAUAUGGCACGCAAGUUUCUACCGGGCACCGUAAAUGUCCGACUGGAGCCGUUCGGGCGGCUAUAAACAGACCUCAGGCCCGAAGCGUGGCGGCACCUGCCGCCGGUGGUAAAAAAGAUCGGAAGAGCACACGUCU reads 1.35; that for GGGUCGCAUGGGGAUAAUCGCGUGGAUAUGGCACGCAAGUUUCUACCGGGCACCGUAAAUGUCCGACUGGAGCCGUUCGGGCGGCUAUAAACAGACCUCAGGCCCGAAGCGUGGCGGCACCUGCCGCCGGUGGUAAAAAAGAUCGGAAGAGCACACGUCU, 1.14.
Turning to GGGUCGUGAUGAAAUAAUCGCGUGGAUAUGGCACGCAAGUUUCUACCGGGCACCGUAAAUGUCCGACUGGAGCCGUUCGGGCGGCUAUAAACAGACCUCAGGCCCGAAGCGUGGCGGCACCUGCCGCCGGUGGUAAAAAAGAUCGGAAGAGCACACGUCU, the “aptazyme ON/OFF ratio” value came to 1.16.
Then GGGUCGGGCCGGGAUAAUCGCGUGGAUAUGGCACGCAAGUUUCUACCGGGCACCGUAAAUGUCCGACUGGAGCCGUUCGGGCGGCUAUAAACAGACCUCAGGCCCGAAGCGUGGCGGCACCUGCCGCCGGUGGUAAAAAAGAUCGGAAGAGCACACGUCU, with 1.17.
As for GGGUCGGUAUUAGAUAAUCGCGUGGAUAUGGCACGCAAGUUUCUACCGGGCACCGUAAAUGUCCGACUGGAGCCGUUCGGGCGGCUAUAAACAGACCUCAGGCCCGAAGCGUGGCGGCACCUGCCGCCGGUGGUAAAAAAGAUCGGAAGAGCACACGUCU, the “aptazyme ON/OFF ratio” value came out at 1.15.
Turning to GGGUCGCAUCCAAAUAAUCGCGUGGAUAUGGCACGCAAGUUUCUACCGGGCACCGUAAAUGUCCGACUGGAGCCGUUCGGGCGGCUAUAAACAGACCUCAGGCCCGAAGCGUGGCGGCACCUGCCGCCGGUGGUAAAAAAGAUCGGAAGAGCACACGUCU, the “aptazyme ON/OFF ratio” value was found to be 1.06.
Then GGGUCGUAUACUUAUAAUCGCGUGGAUAUGGCACGCAAGUUUCUACCGGGCACCGUAAAUGUCCGACUGGAGCCGUUCGGGCGGCUAUAAACAGACCUCAGGCCCGAAGCGUGGCGGCACCUGCCGCCGGUGGUAAAAAAGAUCGGAAGAGCACACGUCU, with 1.18; and GGGUCGAAAUAUGAUAAUCGCGUGGAUAUGGCACGCAAGUUUCUACCGGGCACCGUAAAUGUCCGACUGGAGCCGUUCGGGCGGCUAUAAACAGACCUCAGGCCCGAAGCGUGGCGGCACCUGCCGCCGGUGGUAAAAAAGAUCGGAAGAGCACACGUCU, with 1.23.
GGGUCGAUCCCCGAUAAUCGCGUGGAUAUGGCACGCAAGUUUCUACCGGGCACCGUAAAUGUCCGACUGGAGCCGUUCGGGCGGCUAUAAACAGACCUCAGGCCCGAAGCGUGGCGGCACCUGCCGCCGGUGGUAAAAAAGAUCGGAAGAGCACACGUCU: the “aptazyme ON/OFF ratio” value amounted to 1.01.
Then GGGUCGCCGGGUAAUAAUCGCGUGGAUAUGGCACGCAAGUUUCUACCGGGCACCGUAAAUGUCCGACUGGAGCCGUUCGGGCGGCUAUAAACAGACCUCAGGCCCGAAGCGUGGCGGCACCUGCCGCCGGUGGUAAAAAAGAUCGGAAGAGCACACGUCU, with 1.1.
Regarding GGGUCGCUGGAUCAUAAUCGCGUGGAUAUGGCACGCAAGUUUCUACCGGGCACCGUAAAUGUCCGACUGGAGCCGUUCGGGCGGCUAUAAACAGACCUCAGGCCCGAAGCGUGGCGGCACCUGCCGCCGGUGGUAAAAAAGAUCGGAAGAGCACACGUCU, the “aptazyme ON/OFF ratio” value turned out to be 1.15.

Source of the values: the RNAGym collection of RNA variant scans (doi:10.1021/acssynbio.7b00057).
